These results are taken from publication PMC4884477.

What is called Kd is the concentration at which binding is half-saturated. Low readings indicate tighter binding, high ones weaker binding.

For one data set, the target named is S. aureus Hfq (Staphylococcus aureus, UniProt A0A0H3JV59 1-77). Briefly: fluorescence anisotropy.
The target in the next data set is E. coli Hfq (Escherichia coli, UniProt P0A6X3 1-102). Briefly: fluorescence anisotropy.

On to GUGGUCAGUCGAGUGGCUUCCGUCCAUUUCGGACGUUUUUU (structured_RNA) [Cy3-mini-sRNA], for which the Kd was 100 nM with S. aureus Hfq and 2.7 ± 0.8 nM with E. coli Hfq.
